Assay [1] deals with sortilin. The following applies: immobilized sortilin; ref Nykjaer et al. [2004]; read-out: affinity (immobilized sortilin); cited from earlier work. The source says: The assay was also used to screen for blocking of sortilin-GSTpro interaction with compound AF38469, which ...
Assay [2] addresses T1, sortilin (Homo sapiens, UniProt Q99523).
T1 construct: They were transfected with plasmids either encoding wild type sortilin, or sortilin with a mutation that renders it endocytosis deficient; expressed in transfected cells; host or cells: HEK 293 cells, transient transfection (lipofectamine)
T1 sequence (Q99523 78-831): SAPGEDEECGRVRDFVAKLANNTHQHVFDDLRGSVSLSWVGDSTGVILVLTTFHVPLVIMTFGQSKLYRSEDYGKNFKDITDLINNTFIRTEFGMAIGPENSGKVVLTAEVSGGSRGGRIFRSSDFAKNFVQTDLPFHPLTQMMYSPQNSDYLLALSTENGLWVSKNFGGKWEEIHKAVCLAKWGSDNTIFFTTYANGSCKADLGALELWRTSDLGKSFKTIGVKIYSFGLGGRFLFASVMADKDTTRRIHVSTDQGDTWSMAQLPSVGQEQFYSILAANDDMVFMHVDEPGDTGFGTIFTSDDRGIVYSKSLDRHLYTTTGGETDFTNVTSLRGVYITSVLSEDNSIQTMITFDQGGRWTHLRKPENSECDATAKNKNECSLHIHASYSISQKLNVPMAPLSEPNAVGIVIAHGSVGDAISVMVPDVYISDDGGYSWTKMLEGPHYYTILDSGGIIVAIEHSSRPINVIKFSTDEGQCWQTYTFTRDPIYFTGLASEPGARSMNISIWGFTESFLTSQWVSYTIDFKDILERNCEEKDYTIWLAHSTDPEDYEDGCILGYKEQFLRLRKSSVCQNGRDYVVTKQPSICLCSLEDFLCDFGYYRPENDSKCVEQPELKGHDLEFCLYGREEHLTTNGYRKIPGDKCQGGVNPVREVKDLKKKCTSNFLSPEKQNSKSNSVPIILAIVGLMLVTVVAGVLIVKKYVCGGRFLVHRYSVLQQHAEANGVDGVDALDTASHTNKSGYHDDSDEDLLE
Description: GSTpro internalization: acid wash (PBS, pH 2.0) before fixation. The assay is classed as cell-based. The following applies: PBS pH 2.0 immediately before fixation. The source says:
To further examine whether GSTpro was internalized, rather than only binding to the cell exterior, extracellularly bound ligand was removed by washing cells in PBS acidified to pH 2.0 with HCl supplemented with 0.03 M sucrose and 10% FCS immediately before fixation.
It was not clear whether the detected ligand signal was only due to GSTpro binding to sortilin, or whether sortilin would be subsequently internalized. To determine if GSTpro was endocytosed after sortilin binding, we performed immunocytochemical staining with and without detergent (Fig. 6a, b, respectively). […] However, alternative interpretations are also possible (see discussion). […] We investigated if GSTpro was bound to the cell surface by using an acid wash to remove surface bound GSTpro. Cells were washed in PBS, pH 2.0 immediately before fixation, to remove extracellular ligand bound to receptors.

In assay [3] the test system is empty vector control-transfected cells. Description: GSTpro signal in empty vector control-transfected HEK293 cells. Format: cell-based, human. The following applies: Fig. 3a, c, d. The procedure: HEK 293 cells were grown in DMEM with 10% fetal bovine serum. They were transfected with plasmids either encoding wild type sortilin, or sortilin with a mutation that renders it endocytosis deficient, or an empty control vector according to manufacturer’s instructions using 20 µg lipofectamine (Thermo Fischer Scientific) with 8 µg DNA on […] per 6 cm, poly-lysine coated dish. The cells were initially plated into 24-well dishes after transfection. That intermediate step rendered more uniform cell numbers in the 96-well dishes that were used to run the actual assay. 24 h later, cells were split into black opaque-walled, clear-bottom 96 well dishes at 42000 cells in 80 µl medium/well. […]
The fixed cells were washed with PBS for 15 min, followed by two 15 min washes with PBS with 0.1% Triton X-100. […] Wells to be evaluated for blocking of the sortilin-GSTpro interaction by antibodies were only stained with an antibody against the pro domain of proNGF in 10% FBS at a dilution of 1:1500 (Millipore (N-term) clone EPI318Y, Rabbit Monoclonal Antibody Catalog Number: #04-1142). […]
The following day, wells were washed 3 × 15 min with PBS/0.1% Triton X-100. […] Cellular fluorescence was quantified using an array scanner and the “Neuronal Profiler” Bioapplication (Thermo Fisher Scientific) as described below. […]

B1: GSTpro: fusion of Glutathione S-transferase (GST) merged at the C-terminal of GST to the pro part (19–121) of human proNGF (protein)
chain: EPHSESNVPAGHTIPQAHWTKLQHSLDTALRRARSAPAAAIAARVAGQTRNITVDPRLFKKRRLRSPRVLFSTQPPREAADTQDLDFEVGGAAPFNRTHRSKR
modifications: left off: GST, N-terminal, kept
notes: fusion of Glutathione S-transferase (GST) merged at the C-terminal of GST to the pro part (19–121) of human proNGF
In the case of B1, the Kd on sortilin [1] is 8 nM. Further, the “fraction of GSTpro signal removed by acid wash (in words)” value with sortilin [2] is “only removes a small fraction of the GSTpro signal”. Moreover, the “reduction of GSTpro signal by acid wash” value with sortilin [2] (data not shown) was 20%. Also, the “GSTpro binding signal in empty vector cells (in words)” value in assay [3] is on record as “only very low signal”.

The values are drawn from PMC5882628, “Development of a Cell-Based Assay to Assess Binding of the proNGF Prodomain to Sortilin” (Cellular and Molecular Neurobiology, 2017).
